In patent publication US7910106B2, “Combinations of SAP depleting agents and anti-SAP antibodies” (Pentraxin Therapeutics Ltd., priority 2007, dated 2011):

Key:
SAP [1] = target: T1, SAP (Homo sapiens, UniProt P02743); experiment: Human SAP in serum and organ extracts by electroimmunoassay, AA amyloidotic human SAP transgenic mice (Example 1); format: in vivo, mouse; design: from tissue; host or cells: serum, spleen and liver of C57BL/6 mice with the mouse SAP gene deleted and transgenic for human SAP; settings: for Human SAP concentrations in serum [mean (SD)]: post CPHPC before antibody day 0, CPHPC 1 mg/ml in drinking water
T1 sequence (P02743 20-223): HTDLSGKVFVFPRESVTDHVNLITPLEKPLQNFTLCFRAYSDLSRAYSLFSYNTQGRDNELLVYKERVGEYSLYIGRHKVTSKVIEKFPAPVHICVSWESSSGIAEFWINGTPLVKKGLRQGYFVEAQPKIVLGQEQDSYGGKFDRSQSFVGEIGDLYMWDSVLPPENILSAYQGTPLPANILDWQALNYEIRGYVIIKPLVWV
Excerpt: In the present study AA amyloidosis was induced in mice by amyloid enhancing factor injection followed by repeated casein injections to elicit persistent acute inflammation and thus sufficiently sustained increase in SAA production to promote AA amyloid deposition in all animals. A unique strain of pure line C57BL/6 animals was used in which the mouse SAP gene has been deleted^13 and a human SAP transgene has been introduced^14, 15. […] We then treated three very closely matched groups as follows:
Systemic AA amyloidosis was induced in adult male (n=61) and female (n=32) pure line C57BL/6 mice with the mouse SAP gene deleted and which were transgenic for human SAP^15. Each mouse received a single dose of amyloid enhancing factor^9 by intravenous injection followed 4 days later by 10 daily subcutaneous injections of 10% w/v casein in solution in 0.1M NaHCO3 administered over a 12 day period^13. Seven days after the last casein injection, KI was introduced into the drinking water of all mice and 3 days later each mouse received an intravenous injection of a standard dose of ^125I-labelled human SAP^6,18. Four adult male and four female mice from the same colony but which had not received any other treatment were also given KI and ^125I-SAP as controls. All mice underwent whole body counting 24, 48, 72 96 and 168 h after the tracer injection to determine retention of radioactivity as an index of whole body amyloid load. […] The mice were then allocated to three closely matched groups with as close as possible to the same total numbers and sex distribution in each group. Ten days after the ^125I-SAP injection groups one and two were started on CPHPC in their drinking water at 1 mg/ml and continued on that treatment until the end of the experiment. Group three received no treatment at this or any later stage of the study. Five days after starting the CPHPC each animal in group one received an intraperitoneal injection comprising 1 ml of the whole IgG fraction of monospecific sheep anti-human SAP antiserum at 50 mg/ml containing 7 mg/ml of specific antibody in solution in phosphate buffered physiological saline. The antiserum was raised by immunisation of sheep with 100% pure human SAP. At the same time all animals in group 2 received an intraperitoneal injection comprising 1 ml of the whole IgG fraction of monospecific sheep anti-human oncostatin M receptor antiserum at 50 mg/ml in solution in phosphate buffered physiological saline. […] Twenty eight days after the intraperitoneal injections all mice were killed by bleeding out under terminal anaesthesia and the liver and spleen from each were removed. Each organ was weighed and then divided into three portions, one of which was also weighed and used for extraction of SAP, while the second portion was snap frozen for subsequent immunohistochemical and cytochemical analysis without fixation, and the last part was fixed in buffered formalin for routine histology and estimation of amyloid by Congo red staining^19. All mice were weighed at the time of assignment to the groups after induction of amyloidosis but before administration of ^125I-SAP. They were all weighed again before being killed at the end of the experiment. All mice were bled four times: (1) immediately before groups […] were started on CPHPC; (2) the day before injection of IgG preparations in groups […]; (3) 14 days after the IgG injections; (4) at the time of killing. Sections of spleen and liver of all animals stained with Congo red were independently examined by three different expert observers blinded to the treatment each mouse had received and scored for the amount of amyloid present as previously reported. The scores of 10^0-10^4 represent an approximately log base 10 ranking scale from 10^0, corresponding to one or two tiny specks of amyloidosis among several sections of a particular organ, to 10^4 corresponding to abundant widespread deposits comprising about 10,000 times more amyloid^13. […]

SAP [2] = target: T1, SAP; experiment: CPHPC administration in human systemic amyloidosis patients; format: in vivo; design: Human SAP is a constitutive protein in the plasma; from tissue; host or cells: plasma/serum and amyloid deposits of human patients; settings: after months of continuous CPHPC administration
SAP [3] = target: T1, SAP; experiment: Treatment of a patient with systemic amyloidosis using CPHPC and anti-SAP antibody (Example 2); format: in vivo; design: Human SAP is a constitutive protein in the plasma; from tissue; host or cells: plasma/serum and amyloid deposits of human patients; settings: day after bolus intravenous 100 mg CPHPC
Experimental: A patient suffering from systemic amyloidosis is diagnosed by clinical examination and routine investigations leading to suspicion of amyloidosis, followed by specific confirmation by expert histochemical examination of biopsies of affected tissues. Radiolabelled SAP scintigraphy is performed in the UK NHS National Amyloidosis Centre at the Centre for Amyloidosis and Acute Phase Proteins in the Department of Medicine of University College London at the Royal Free Hospital. […] Routine clinical investigations of organ function establish the extent and severity of tissue and organ damage caused by the amyloid deposits, as well as the presence and severity of any underlying primary disease which may have led to amyloid deposition.
The patient is treated with the SAP depleting drug, CPHPC, administered by bolus intravenous injection of a dose of 100 mg. The following day a blood sample is taken. This confirms by specific immunoassay that the SAP concentration in the serum has been reduced by 90%. An intravenous infusion of anti-SAP antibody is then commenced and over a period of several hours a dose of 1000 mg of antibody is administered sufficient to bind to SAP within the amyloid deposits throughout the body. CPHPC is administered parenterally twice daily for the next two weeks, to ensure that plasma SAP values remain suppressed. […]

SAP [4] = target: T1, SAP; design: Human SAP is a constitutive protein in the plasma; from tissue; host or cells: plasma/serum and amyloid deposits of human patients; settings: in vivo; cited from earlier work
[5] = cited from earlier work
[6] = target: human serum amyloid P component (SAP), isolated pure, native (human) (UniProt P02743); experiment: Biacore (SPR), isolated pure SAP alone immobilised on the chip
Sequence of human serum amyloid P component (SAP), isolated pure, native (human) (P02743 20-223): as above

[7] = target: human serum amyloid P component (SAP), isolated pure, native (human) (UniProt P02743); experiment: IRMA, SAP non-covalently immobilised, antibody at 1 ug/ml, detection anti-mouse IgG2a
[8] = target: human serum amyloid P component (SAP), isolated pure, native (human) (UniProt P02743); experiment: IRMA, SAP non-covalently immobilised, antibody at 10 ug/ml, detection anti-mouse IgG2a
[9] = target: human serum amyloid P component (SAP), isolated pure, native (human) (UniProt P02743); experiment: IRMA, SAP non-covalently immobilised, antibody at 0.1 ug/ml, detection anti-mouse IgG2a
[10] = target: human serum amyloid P component (SAP), isolated pure, native (human) (UniProt P02743); experiment: IRMA, SAP non-covalently immobilised, antibody at 100 ug/ml, detection anti-mouse IgG2a
[11] = target: human serum amyloid P component (SAP), isolated pure, native (human) (UniProt P02743); experiment: IRMA, SAP non-covalently immobilised, antibody at 0.01 ug/ml, detection anti-mouse IgG2a
[12] = target: human serum amyloid P component (SAP), isolated pure, native (human) (UniProt P02743); experiment: IRMA, SAP non-covalently immobilised, antibody at 0.001 ug/ml, detection anti-mouse IgG2a
[13] = target: human serum amyloid P component (SAP), isolated pure, native (human) (UniProt P02743); experiment: IRMA, SAP alone covalently immobilised, in EDTA, radiolabelled sheep anti-mouse IgG, mean n=3
[14] = target: human serum amyloid P component (SAP), isolated pure, native (human) (UniProt P02743); experiment: IRMA, SAP non-covalently immobilised, antibody at 1 ug/ml, detection polyvalent anti-mouse IgG
[15] = target: human serum amyloid P component (SAP), isolated pure, native (human) (UniProt P02743); experiment: IRMA, SAP non-covalently immobilised, antibody at 10 ug/ml, detection polyvalent anti-mouse IgG
[16] = target: human serum amyloid P component (SAP), isolated pure, native (human) (UniProt P02743); experiment: IRMA, SAP alone covalently immobilised, in calcium, radiolabelled sheep anti-mouse IgG, mean n=3
[17] = target: human serum amyloid P component (SAP), isolated pure, native (human) (UniProt P02743); experiment: IRMA, SAP non-covalently immobilised, antibody at 0.1 ug/ml, detection polyvalent anti-mouse IgG
[18] = target: human serum amyloid P component (SAP), isolated pure, native (human) (UniProt P02743); experiment: IRMA, SAP non-covalently immobilised, antibody at 100 ug/ml, detection polyvalent anti-mouse IgG
[19] = target: human serum amyloid P component (SAP), isolated pure, native (human) (UniProt P02743); experiment: IRMA, SAP non-covalently immobilised, antibody at 0.01 ug/ml, detection polyvalent anti-mouse IgG
[20] = target: human serum amyloid P component (SAP), isolated pure, native (human) (UniProt P02743); experiment: IRMA, SAP non-covalently immobilised, antibody at 0.001 ug/ml, detection polyvalent anti-mouse IgG
[21] = target: human SAP complexed with CPHPC and covalently cross-linked with BS3 (human) (UniProt P02743); experiment: IRMA, SAP-CPHPC complex covalently immobilised, in EDTA, radiolabelled sheep anti-mouse IgG, mean n=3
Sequence of human SAP complexed with CPHPC and covalently cross-linked with BS3 (human) (P02743 20-223, one chain of several): as the sequence (P02743 20-223) above

[22] = target: human SAP complexed with CPHPC and covalently cross-linked with BS3 (human) (UniProt P02743); experiment: IRMA, SAP-CPHPC complex covalently immobilised, in calcium, radiolabelled sheep anti-mouse IgG, mean n=3
[23] = target: human serum amyloid P component (SAP), isolated pure, native (human) (UniProt P02743); experiment: IRMA, SAP alone captured on immobilised sheep polyclonal anti-human SAP, in calcium, radiolabelled sheep anti-mouse IgG, mean n=3
[24] = target: human SAP complexed with CPHPC and covalently cross-linked with BS3 (human) (UniProt P02743); experiment: IRMA, SAP-CPHPC complex captured on immobilised sheep polyclonal anti-human SAP, in calcium, radiolabelled sheep anti-mouse IgG, mean n=3

Question: With `O=C(O)[C@H]1CCCN1C(=O)CCCCC(=O)N1CCC[C@@H]1C(=O)O` [CPHPC, (R)-1-[6-[(R)-2-Carboxy-pyrrolidin-1-yl]-6-oxo-hexanoyl]pyrrolidine-2-carboxylic acid] as the compound, how does the “Human SAP concentrations in serum [mean (SD)]” value (SAP [1]; females) read?
Answer: 4.0 (1.4) mg/l

Question: And the “Human SAP concentrations in serum” value (SAP [1]; females, post antibody day 14)?
Answer: trace

Question: What about the “Human SAP concentrations in serum” value (SAP [1]; females, post antibody day 28) of the same compound?
Answer: trace

Question: What about the “Human SAP concentrations in serum [mean (SD)]” value (SAP [1]; males) of the same compound?
Answer: 2.9 (1.3) mg/l

Question: What about the “Human SAP concentrations in serum” value (SAP [1]; males, post antibody day 14) of the same compound?
Answer: trace

Question: And the “Human SAP concentrations in serum” value (SAP [1]; males, post antibody day 28)?
Answer: trace

Question: And the “Greatest depletion of SAP from amyloid deposits” value (SAP [2])?
Answer: about 90%

Question: What about the “Reduction of SAP concentration in the serum” value (SAP [3]) of the same compound?
Answer: 90%

Question: What about the “Tolerability / adverse effects” value (SAP [4]) of the same compound?
Answer: extremely well tolerated

Question: What does the source list for “human SAP: isolated pure human SAP injected to load amyloid deposits”?
Answer: Half time of persistence in amyloid deposits ([5]; amyloidotic mice): 3 to 4 days; Half life of clearance from the circulation ([5]; human SAP not bound to amyloid): 3 to 4 h

Question: Which koff [6] does the source give for “mouse monoclonal anti-human SAP antibody SAP-5” here?
Answer: 6e-05 s⁻¹

Question: And the kon [6]?
Answer: 20000 M⁻¹ s⁻¹

Question: What about the Activity bound (d.p.m.) [7] of the same compound?
Answer: 1650 d.p.m.

Question: What about the Activity bound (d.p.m.) [8] of the same compound?
Answer: 1980 d.p.m.

Question: And the Activity bound (d.p.m.) [9]?
Answer: 589 d.p.m.

Question: What about the Activity bound (d.p.m.) [10] of the same compound?
Answer: 2200 d.p.m.

Question: And the Activity bound (d.p.m.) [11]?
Answer: 222 d.p.m.

Question: What about the Activity bound (d.p.m.) [12] of the same compound?
Answer: 94 d.p.m.

Question: And the Activity bound (d.p.m.) [13]?
Answer: 4050 d.p.m.

Question: And the Activity bound (d.p.m.) [14]?
Answer: 12100 d.p.m.

Question: And the Activity bound (d.p.m.) [15]?
Answer: 15400 d.p.m.

Question: What about the Activity bound (d.p.m.) [16] of the same compound?
Answer: 5580 d.p.m.

Question: And the Activity bound (d.p.m.) [17]?
Answer: 4560 d.p.m.

Question: What about the Activity bound (d.p.m.) [18] of the same compound?
Answer: 16200 d.p.m.

Question: And the Activity bound (d.p.m.) [19]?
Answer: 902 d.p.m.

Question: What about the Activity bound (d.p.m.) [20] of the same compound?
Answer: 195 d.p.m.

Question: What about the Activity bound (d.p.m.) [21] of the same compound?
Answer: 5140 d.p.m.

Question: What about the Activity bound (d.p.m.) [22] of the same compound?
Answer: 6160 d.p.m.

Question: What about the Activity bound (d.p.m.) [23] of the same compound?
Answer: 9310 d.p.m.

Question: And the Activity bound (d.p.m.) [24]?
Answer: 7120 d.p.m.
